Common to all, as to assay: cryo-EM structure
The target in one assay is T1, Sth1 (yeast, UniProt P32597 1-1359).
T1 sequence: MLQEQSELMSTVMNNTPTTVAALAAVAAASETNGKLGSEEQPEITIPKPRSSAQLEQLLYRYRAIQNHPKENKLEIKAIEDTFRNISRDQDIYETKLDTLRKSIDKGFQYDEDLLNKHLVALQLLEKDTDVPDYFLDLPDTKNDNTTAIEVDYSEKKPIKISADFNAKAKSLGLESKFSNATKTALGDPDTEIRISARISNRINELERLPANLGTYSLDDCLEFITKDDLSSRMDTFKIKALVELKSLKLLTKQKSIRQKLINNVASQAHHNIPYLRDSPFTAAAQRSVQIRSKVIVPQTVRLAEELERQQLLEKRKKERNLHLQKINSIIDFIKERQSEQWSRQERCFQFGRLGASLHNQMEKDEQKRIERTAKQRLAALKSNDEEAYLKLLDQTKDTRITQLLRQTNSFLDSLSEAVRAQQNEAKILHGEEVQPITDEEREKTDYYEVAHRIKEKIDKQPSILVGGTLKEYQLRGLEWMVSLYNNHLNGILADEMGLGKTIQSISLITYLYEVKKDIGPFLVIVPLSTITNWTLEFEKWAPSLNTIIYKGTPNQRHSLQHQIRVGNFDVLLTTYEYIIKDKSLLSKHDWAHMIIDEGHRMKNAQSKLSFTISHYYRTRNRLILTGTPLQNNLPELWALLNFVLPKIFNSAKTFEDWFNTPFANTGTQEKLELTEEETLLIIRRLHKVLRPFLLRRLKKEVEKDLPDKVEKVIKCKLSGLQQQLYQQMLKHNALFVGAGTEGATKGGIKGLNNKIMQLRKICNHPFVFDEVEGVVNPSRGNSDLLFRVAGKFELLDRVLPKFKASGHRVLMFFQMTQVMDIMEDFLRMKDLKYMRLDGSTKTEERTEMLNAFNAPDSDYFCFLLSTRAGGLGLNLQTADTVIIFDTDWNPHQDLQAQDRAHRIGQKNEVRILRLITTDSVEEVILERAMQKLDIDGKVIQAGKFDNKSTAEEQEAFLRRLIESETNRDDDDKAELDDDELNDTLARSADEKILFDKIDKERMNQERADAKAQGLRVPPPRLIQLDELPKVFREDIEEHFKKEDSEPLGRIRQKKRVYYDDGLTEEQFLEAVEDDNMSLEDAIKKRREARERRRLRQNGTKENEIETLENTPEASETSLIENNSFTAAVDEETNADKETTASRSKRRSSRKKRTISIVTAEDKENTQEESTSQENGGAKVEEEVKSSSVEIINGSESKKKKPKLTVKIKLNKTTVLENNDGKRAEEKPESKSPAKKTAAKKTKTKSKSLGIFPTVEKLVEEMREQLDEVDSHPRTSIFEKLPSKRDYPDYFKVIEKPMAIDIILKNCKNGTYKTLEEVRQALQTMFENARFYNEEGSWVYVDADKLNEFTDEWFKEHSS

For the next assay, the target named is T2, Rsc8 (yeast, UniProt P43609 1-557).
T2 sequence: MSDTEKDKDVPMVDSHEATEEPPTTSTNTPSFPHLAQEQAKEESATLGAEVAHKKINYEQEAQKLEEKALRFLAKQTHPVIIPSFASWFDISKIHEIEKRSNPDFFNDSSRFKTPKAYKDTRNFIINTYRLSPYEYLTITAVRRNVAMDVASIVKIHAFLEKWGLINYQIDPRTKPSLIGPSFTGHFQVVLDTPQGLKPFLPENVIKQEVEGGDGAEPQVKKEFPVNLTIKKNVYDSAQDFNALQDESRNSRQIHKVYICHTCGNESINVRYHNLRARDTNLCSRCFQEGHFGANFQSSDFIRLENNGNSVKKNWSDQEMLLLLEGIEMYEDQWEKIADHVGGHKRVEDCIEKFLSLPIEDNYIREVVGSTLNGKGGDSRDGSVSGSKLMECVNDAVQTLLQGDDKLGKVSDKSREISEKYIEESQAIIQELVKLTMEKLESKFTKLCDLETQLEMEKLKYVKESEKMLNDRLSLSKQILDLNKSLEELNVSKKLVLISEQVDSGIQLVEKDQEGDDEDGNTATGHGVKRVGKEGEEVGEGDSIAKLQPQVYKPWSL

In the next assay the target is T3, Rsc3 (yeast, UniProt Q06639 1-885).
T3 sequence: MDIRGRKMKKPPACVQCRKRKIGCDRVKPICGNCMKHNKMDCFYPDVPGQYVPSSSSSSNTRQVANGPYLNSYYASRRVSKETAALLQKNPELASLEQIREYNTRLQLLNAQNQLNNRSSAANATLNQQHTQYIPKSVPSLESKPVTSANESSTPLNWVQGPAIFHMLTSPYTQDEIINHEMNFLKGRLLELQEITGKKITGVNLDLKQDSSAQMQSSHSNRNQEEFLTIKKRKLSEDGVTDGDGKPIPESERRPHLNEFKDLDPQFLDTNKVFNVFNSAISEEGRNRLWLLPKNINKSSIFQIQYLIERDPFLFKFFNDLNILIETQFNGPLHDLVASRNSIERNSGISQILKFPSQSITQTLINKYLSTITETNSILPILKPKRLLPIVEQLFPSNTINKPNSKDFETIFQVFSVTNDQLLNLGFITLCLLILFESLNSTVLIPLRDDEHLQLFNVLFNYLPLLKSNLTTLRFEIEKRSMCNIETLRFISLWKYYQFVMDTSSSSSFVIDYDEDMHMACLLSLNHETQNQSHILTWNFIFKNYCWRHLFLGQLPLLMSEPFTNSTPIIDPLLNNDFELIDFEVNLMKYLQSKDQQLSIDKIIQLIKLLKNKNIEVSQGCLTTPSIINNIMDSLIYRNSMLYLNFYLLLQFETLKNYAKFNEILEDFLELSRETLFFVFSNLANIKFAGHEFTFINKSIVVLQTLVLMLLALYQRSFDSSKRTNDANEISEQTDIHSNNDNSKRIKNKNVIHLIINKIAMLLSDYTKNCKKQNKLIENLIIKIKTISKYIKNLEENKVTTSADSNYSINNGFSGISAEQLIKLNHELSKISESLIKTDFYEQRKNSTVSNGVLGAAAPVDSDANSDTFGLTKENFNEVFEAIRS

B1: Rtt102 (natural protein, yeast)
chain: MDPQTLITKANKVSYYGNPTSKESWRYDWYQPSKVSSNVQQPQQQLGDMENNLEKYPFRYKTWLRNQEDEKNLQRESCEDILDLKEFDRRILKKSLMTSHTKGDTSKATGAPSANQGDEALSVDDIRGAVGNSEAIPGLSAGVNNDNTKESKDVKMN
As to B1, the binding result with Sth1 was “binds”.

B2: Arp9 (natural protein, yeast)
chain: MAPFRQDSILIIYPRSQTTLVQFGLNEETFTVPELEIPTQIYRTTRQDGSYTYHSTNKDNKAELIKPIQNGEIIDISAFTQFLRLIFVSILSDRANKNQDAFEAELSNIPLLLITHHSWSQSDLEIITQYVFESLEINNLIQLPASLAATYSMISLQNCCIIDVGTHHTDIIPIVDYAQLDHLVSSIPMGGQSINDSLKKLLPQWDDDQIESLKKSPIFEVLSDDAKKLSSFDFGNENEDEDEGTLNVAEIITSGRDTREVLEERERGQKVKNVKNSDLEFNTFWDEKGNEIKVGKQRFQGCNNLIKNISNRVGLTLDNIDDINKAKAVWENIIIVGGTTSISGFKEALLGQLLKDHLIIEPEEEKSKREEEAKSVLPAATKKKSKFMTNSTAFVPTIEYVQCPTVIKLAKYPDYFPEWKKSGYSEIIFLGAQIVSKQIFTHPKDTFYITREKYNMKGPAALWDVQF
Turning to B2, the binding result with Sth1 is given as “binds”.

B3: Rsc7 (natural protein, yeast)
chain: MSDSEGGLASEVEHEKRSRSTSNRPNYAIDTEDLDIDENDENEDDDYREEEANEGVNEEEISDEEEQINKSGRNKRRHVDEEEDLSEDKGVTRSRNRSKFKKPVFPGIDDAEENLNPLKVVNEEYVLPDDPEGETKITADGDLLGGREFLVRTFTLTEKGNRKFMLATEPARIVGFRDSYLFFQTHPNLYKFILNQTQKNDLIDRGVLPYSYRNRQIALVTARGVFKEFGAKIIRGGKHITDDYYASELRTKGNVIEGKLAGDPIDKSARALETMMYPASENGINPAKNQVEFFEHRPHGHMSNSNIIASGSKLSSTNWLYQHSAACSRFNSDLFYDRVKVLLVDQQGLRDAYTNILHIPESTQSTTVLGWRRSKNDSPSDTSIVYETVIHDNDLNKPKTGLSEIPKEIYEDVVDEDVLRAITEQQNFEKCNEYI
Regarding B3, the binding result with Rsc8 is listed as “binds”.

B4: Rsc58 (natural protein, yeast)
chain: MTESVGGNKLVDFLVNVQSILNAASVKCHVVDESFPAKFFEKNPDKIYESYCKFIKNRSNSEGLIRNEDKLVLTTINKRFENGEYEPIQGGFYKLYHDIKLVCTILIHFYPQGTRNYQLVDKFYKFSSELLLRECCRIGIALTQTNNIKSRSGKLLSGNEMDEYDDDDATELDKIISYDFIKISMNYTVPISQTYQIRTKDMDLFSSIISKSNLDKRPHELPNTNFKINNVLPQTDIENEAPRLGFVGANTSNIPDPTLPPTEMMTRFLHPNWYALPTTVWLKYGNYNSWAPSFNENGTVVDSTTRGLIWLERIGYMDLYEKNEKKVKQEELLNTNEEGINRKQNDENNKNVDGKSNGVQDDGGDNDNDATIASANSESTENKEQFIIKLQNLYNWTPSNYIGDDEIENFRNGTPDKLVSDSLLKLKRLRKERILNKVLKPTTEERELYFKVKRILKEVILAKKVSKVPINNVRAFPVLQTNYNGSIPVVRAQPGRKRKHKK
For B4, the binding result in the assay with Sth1 and with Rsc8 was “binds” each time.

B5: Rsc30 (natural protein, yeast)
chain: MMDMQVRKVRKPPACTQCRKRKIGCDRAKPICGNCVKYNKPDCFYPDGPGKMVAVPSASGMSTHGNGQGSNHFSQGNGVNQKNVMIQTQYPIMQTSIEAFNFSFNPSVDTAMQWTKAASYQNNNTNNNTAPRQNSSTVSSNVHGNTIVRSDSPDVPSMDQIREYNTRLQLVNAQSFDYTDNPYSFNVGINQDSAVFDLMTSPFTQEEVLIKEIDFLKNKLLDLQSLQLKSLKEKSNLNADNTTANKINKTGENSKKGKVDGKRAGFDHQTSRTSQSSQKYFTALTITDVQSLVQVKPLKDTPNYLFTKNFIIFRDHYLFKFYNILHDICHINQFKVSPPNNKNHQQYMEVCKVNFPPKAIIIETLNSESLNNLNIEEFLPIFDKTLLLEFVHNSFPNGDTCPSFSTVDLPLSQLTKLGELTVLLLLLNDSMTLFNKQAINNHVSALMNNLRLIRSQITLINLEYYDQETIKFIAITKFYESLYMHDDHKSSLDEDLSCLLSFQIKDFKLFHFLKKMYYSRHSLLGQSSFMVPAAENLSPIPASIDTNDIPLIANDLKLLETQAKLINILQGVPFYLPVNLTKIESLLETLTMGVSNTVDLYFHDNEVRKEWKDTLNFINTIVYTNFFLFVQNESSLSMAVQHSSNNNKTSNSERCAKDLMKIISNMHIFYSITFNFIFPIKSIKSFSSGNNRFHSNGKEFLFANHFIEILQNFIAITFAIFQRCEVILYDEFYKNLSNEEINVQLLLIHDKILEILKKIEIIVSFLRDEMNSNGSFKSIKGFNKVLNLIKYMLRFSKKKQNFARNSDNNNVTDYSQSAKNKNVLLKFPVSELNRIYLKFKEISDFLMEREVVQRSIIIDKDLESDNLGITTANFNDFYDAFYN
B5: in the assay with Rsc3, the binding result is “binds”.

B6: Arp7 (natural protein, yeast)
chain: MTLNRKCVVIHNGSHRTVAGFSNVELPQCIIPSSYIKRTDEGGEAEFIFGTYNMIDAAAEKRNGDEVYTLVDSQGLPYNWDALEMQWRYLYDTQLKVSPEELPLVITMPATNGKPDMAILERYYELAFDKLNVPVFQIVIEPLAIALSMGKSSAFVIDIGASGCNVTPIIDGIVVKNAVVRSKFGGDFLDFQVHERLAPLIKEENDMENMADEQKRSTDVWYEASTWIQQFKSTMLQVSEKDLFELERYYKEQADIYAKQQEQLKQMDQQLQYTALTGSPNNPLVQKKNFLFKPLNKTLTLDLKECYQFAEYLFKPQLISDKFSPEDGLGPLMAKSVKKAGASINSMKANTSTNPNGLGTSHINTNVGDNNSTASSSNISPEQVYSLLLTNVIITGSTSLIEGMEQRIIKELSIRFPQYKLTTFANQVMMDRKIQGWLGALTMANLPSWSLGKWYSKEDYETLKRDRKQSQATNATN
B6: in the assay with Sth1, the binding result is listed as “binds”.

B7: Htl1 (natural protein, yeast)
chain: MSQNNTISSMNPERAYNNVTLKNLTAFQLLSQRENICELLNLVESTERHNSIINPERQRMSLEEMKKMLDALKNERKK
On to B7, for which the binding result with Rsc8 is recorded as “binds”.

For the origin of these results see PMC8442553 (Science (New York, N.Y.), 2019).
